B1: HA epitope-tagged MEKK3 (expressed in HEK293 cells) (protein)
chain: MGYPYDVPDYASDEQEALDSIMKDLVALQMSRRTRLSGYETMKNKDTGHPNRQSDVRIKFEHNGERRIIAFSRPVRYEDVEHKVTTVFGQPLDLHYMNNELSILLKNQDDLDKAIDILDRSSSMKSLRILLLSQDRNHTSSSPHSGVSRQVRIKPSQSAGDINTIYQAPEPRSRHLSVSSQNPGRSSPPPGYVPERQQHIARQGSYTSINSEGEFIPETSEQCMLDPLSSAENSLSGSCQSLDRSADSPSFRKSQMSRARSFPDNRKECSDRETQLYDKGVKGGTYPRRYHVSVHHKDYNDGRRTFPRIRRHQGNLFTLVPSSRSLSTNGENMGVAVQYLDPRGRLRSADSENALTVQERNVPTKSPSAPINWRRGKLLGQGAFGRVYLCYDVDTGRELASKQVQFDPDSPETSKEVSALECEIQLLKNLQHERIVQYYGCLRDRAEKILTIFMEYMPGGSVKDQLKAYGALTESVTRKYTRQILEGMSYLHSNMIVHRDIKGANILRDSAGNVKLGDFGASKRLQTICMSGTGIRSVTGTPYWMSPEVISGEGYGRKADVWSLGCTVVEMLTEKPPWAEYEAMAAIFKIATQPTNPQLPSHISEHGRDFLRRIFVEARQRPSAEELLTHHFAQLVY
B2: MEKK1 (protein encoded by p-MEKK1, transiently expressed in COS cells) (protein)
chain: MVTAVPAVFSKLVTMLNASGSTHFTRMRRRLMAIADEVEIAEVIQLGVEDTVDGHQDSLQAVAPTSCLENSSLEHTVHREKTGKGLSATRLSASSEDISDRLAGVSVGLPSSTTTEQPKPAVQTKGRPHSQCLNSSPLSHAQLMFPAPSAPCSSAPSVPDISKHRPQAFVPCKIPSASPQTQRKFSLQFQRNCSEHRDSDQLSPVFTQSRPPPSSNIHRPKPSRPVPGSTSKLGDATKSSMTLDLGSASRCDDSFGGGGNSGNAVIPSDETVFTPVEDKCRLDVNTELNSSIEDLLEASMPSSDTTVTFKSEVAVLSPEKAENDDTYKDDVNHNQKCKEKMEAEEEEALAIAMAMSASQDALPIVPQLQVENGEDIIIIQQDTPETLPGHTKAKQPYREDAEWLKGQQIGLGAFSSCYQAQDVGTGTLMAVKQVTYVRNTSSEQEEVVEALREEIRMMGHLNHPNIIRMLGATCEKSNYNLFIEWMAGGSVAHLLSKYGAFKESVVINYTEQLLRGLSYLHENQIIHRDVKGANLLIDSTGQRLRIADFGAAARLASKGTGAGEFQGQLLGTIAFMAPEVLRGQQYGRSCDVWSVGCAIIEMACAKPPWNAEKHSNHLALIFKIASATTAPSIPSHLSPGLRDVAVRCLELQPQDRPPSRELLKHPVFRTTW
B3: HA epitope-tagged MEKK2 (expressed in HEK293 cells) (protein)
chain: MGYPYDVPDYASDDQQALNSIMQDLAVLHKPVGQHYLYKKPGKQNLHHQKNRMMFESNLNIEEEKRILQVTRPVKLEDLRSKSKIAFGQSMDLHYTNNELVIPLTTQDDLDKAVELLDRSIHMKSLKILLVVNGSTQATNLEPSPSPEDLNNTPLGAERKKRLSVVGPPNRDRSSPPPGYIPDILHQIARNGSFTSINSEGEFIPESMDQMLDPLSLSSPENSGSGSCPSLDSPLDGESYPKSRMPRAQSYPDNHQEFTDYDNPIFEKFGKGGTYPRRYHVSYHHQEYNDGRKTFPRARRTQGTSFRSPVSFSPTDHSLSTSSGSSVFTPEYDDSRIRRRGSDIDNPTLTVTDISPPSRSPRAPTNWRLGKLLGQGAFGRVYLCYDVDTGRELAVKQVQFNPESPETSKEVNALECEIQLLKNLLHERIVQYYGCLRDPQEKTLSIFMELSPGGSIKDQLKAYGALTENVTRKYTRQILEGVHYLHSNMIVHRDIKGANILRDSTGNIKLGDFGASKRLQTICLSGTGMKSVTGTPYWMSPEVISGEGYGRKADIWSVACTVVEMLTEKPPWAEFEAMAAIFKIATQPTNPKLPPHVSDYTRDFLKRIFVEAKLRPSAEELLRHMFVHYH

Columns and labels:
[1] = target: recombinant MEK1 (substrate in Example 2)
[2] = target: recombinant JNKK (substrate in Example 2)
[3] = target: recombinant catalytically inactive MEK-1 (Lys343 to Met, polyhistidine fusion), P31938

Row | Protein | in vitro kinase assay of 12CA5 immunoprecipitates with a recombinant substrate and γ-32P-ATP [1] | in vitro kinase assay of 12CA5 immunoprecipitates with a recombinant substrate and γ-32P-ATP [2] | phosphorylation of catalytically inactive MEK-1 by immunoprecipitated MEKK (γ-32P-ATP, SDS-PAGE, autoradiography) [3]
1 | B1 | it did not show measurable kinase activity toward MEK 1 or JNKK | it did not show measurable kinase activity toward MEK 1 or JNKK | 
2 | B2 |  |  | MEKK phosphorylated catalytically inactive MEK-1
3 | B3 | MEKK 2 clearly phosphorylates both MEK 1 and JNKK | MEKK 2 clearly phosphorylates both MEK 1 and JNKK | 
